One series relates to T98G cell line. As to the kind of experiment: sLCR-mCherry reporter expression and reprogramming in a glioma cell line. The format is cell-based. The settings on record: transient over-expression of SALL3, SOX2 and POU3F2. Here is the method: The T98G and U87MG (kindly provided by the van Tellingen lab, NKI) were propagated in EMEM medium. For the experiments in FIG. 13a, T98G were switched to RHB-A supplemented with EGF (20 ng ml-1), bFGF (20 ng ml-1), heparin (1 μg ml-1) and 5% penicillin and streptomycin and propagated first on standard tissue culture-treated plastic, then in ultra-low binding plastic (CORNING).
The Proneural GBM is thought to represent the common GBM ancestor subtype and also to reflect an oligodendrocytic cell-of-origin^26′^37. […] To test whether a PN sLCR would mirror the Proneural state, we decided to induce reprogramming of a FBS-driven conventional cell line into a PN-GICs using the master TFs underlying the PN identity^38. To this end, we transduced either MGT #1 or PNGT #2 into the T98G cell line, which is characterized by TP53 mutations (https://portals.broadinstitute.org/ccle), which are more likely to be associated with a PN phenotype^16. […] Of note, these set of experiments were conducted with a mCherry fluorescent protein carrying a nuclear localization signaling, thereby excluding that the fluorescent protein intensity (mCherry is brighter than mVenus), localization and stability (mVenus is transmembrane and stabilized) play a major role in the observed phenotypic transitions.

Series [1] concerns MES-hGICs-MGT #1dim xenografts. As to the kind of experiment: Orthotopic glioma xenograft, genetic tracing of MGT #1. The class given is in vivo, NSG mice. Here is the method: Tissue dissection and Cell surface staining: Brain tumor dissection was previously described in detail^77. Briefly, the tissue was dissected with a scalpel, digested in Accutase/DNasel (947 μl Accutase, 50 μl DNase I Buffer, 3 μl DNase I) at 37° C. until needed. Filtered through a 120 μm cell strainer first and a 40 μm cell strainer before RBC lysis (NH4Cl, 155 mM; KHCO3, 10 mM; EDTA, pH 7.4, 0.1 mM). After washing in cold PBS, viability and cell count were assessed automatically with 0.4% Trypan Blue staining using a TECAN SPARK20M.
When surface markers were assessed, typically, 200.000 cells/antibody were used in 15 ml Falcons. Staining volume was 50 μl in RHB-A medium with primary antibody (e.g. CD133-APC; Miltenyi), on ice, in the dark, for 30′. […] Depending on whether cells were analyzed or sorted, data acquisition was performed on the BD LSRFortessa or cells were sorted using the BD Aria II or a Astrios Moflo. The appropriate laser-filter combinations were chosen depending on the fluorophores being analyzed. Typically, to remove dead cells, events were first gated on the basis of shape and granularity (FSC-SSC), and we used as viability dyes either AnnexinV or LIVE/DEAD Fixable Aqua Dead Cell Stain Kit (depending on the fluorophores being analyzed). […]
We intracranially transplanted MES-hGICs-MGT #1^dim cells into NSG mice and longitudinally monitored tumor formation. […]

The next series has as its system MCF7 cells. As to the kind of experiment: FACS of MGT #1 expression in breast cancer cells. The format is cell-based. The settings on record: after lentiviral transduction. The method, then: The MCF7, MDA-231, A549 and H1944, cell lines (kindly provided by the Rene Bernards lab, NKI) were cultured in RPMI medium. All cell lines were supplemented with 10% FBS, and 5% penicillin and streptomycin at 37° C. in a 5% CO2-95% air incubator.
Tumor subtypes are genetically engraved in breast cancer cells^40. […] To confirm that MGT #1 expression reflects that actual breast cancer subtype identity, we FACS sorted and sub-cloned the top MCF7-MGT #1 and the mid MDA-231-MGT #1 expressing cells. Nevertheless, further propagation of the FACS-sorted populations reestablished pre-sorting homeostasis, with MCF7 expressing lower levels of MGT #1 than MDA-231.

The next series concerns MES-hGICs and PN-hGICs. Kind of series: FACS of basal sLCR expression in hGICs. The format is cell-based, human. The settings on record: growth-factor defined conditions in vitro. The method, then: FACS sorting: Transduced hGICs were harvested into single cell suspensions and resuspended into cold RHB-A complete and filtered into FACS tubes. Sorting was conducted using BD FACSAria III or Fusion. The appropriate laser-filter combinations were chosen depending on the fluorophores being sorted for. Typically, to remove dead cells, events were first gated on the basis of shape and granularity (FSC-A vs. SSC-A) and doublets were excluded (FSC-A vs. FSC-H). Positive gates were established on PGK-driven and constitutively expressed H2B-CFP as sorting reporter, to sort for populations with low to medium intensity of sLCR-dependent fluorophore expression.
Next, we transduced Proneural (PNGT #1-2) and Mesenchymal (MGT #1-2) sLCRs lentiviral particles into spontaneously immortalized human neural progenitor cells that acquired high copy number of PDGFRA, c-Myc and CDK4. To recapitulate the common PN and MES GBM genetic backgrounds, we further engineered hGICs to be depleted of PTEN and either bear IDH1^R132 and TP53^R273H point mutations or be further depleted of TP53 and NF1, thereby generating PN-hGICs and MES-hGICs, respectively. These cells show DNA methylation profiles similar to GBM patients and acquire subtype-specific gene-expression in vivo and therefore represent two distinct GBM subtypes.

B1: MGT #1: subtype-specific sLCR for mesenchymal glioblastoma (MES-GBM) (nucleic acid)
chain: ATATTTATTTTTAGGACCAGAAAGTTAAAGTGAATTGGATTTGATCCATTTTCTGAAAGGCTGGCAAGAATTCTTGACATTGCACAGGAATTTCCATGTCAGCATGTTCTCACATGTATGATCTAATTTAGAGATTATTTTGGGGGGCGGGGGTTGAGGAAATGGCATGACTCAGAGTTTAAAAGCCCCAAATCTTAGCTGTGCCTGTGTAGCTTTACCACATAACCCATTGATAACTTAGTTGTGCAACCATCACCACCATCTGTTTTCAGAACTCTTTTCATTTTGCGAAACTGAAACCCGTTAAGCACTGATTTCCCACTCTCCCTCCTCCCAGCCCATAGCAAACCACCATCCCACCAGCACTTTCATTTCGCAAATGGCAAAACTGAAGCCGATATTGTGGTTGTGACTTATCCCAAAGTAATATACACATAAACCTCTATGGATGAGGAAAAAGACAGAGGGAAACTAAAAATTCAAAAGAACAAATTTGACTCACAGATTTGCTGACTCATAGTTGTGACACTTCCTGGCTCAGGAAGTTGAATTTCATTAAGCCTTTGTGGTTTGGGGCTCTGCTGTGCTTTGACAGCTCTGATCTCCTCCCTTCCGGCTGGGCTGTCTGGGGCGCTCTAAAATGAGTGTTGATTTAATGCACTGCCTTCGCACCCGTGCTGGTGCGTCCCGGGGACAGGGGTGGCTGTGCGGTGCCGCGGCGGCCGGCGGGGCTCCTTCCCCAGCAGGGGTGGGGACGCTGAGTCACGGATCTGTCACCGCTTTGCACCTCTCCGAGCCCTCGGGGGCCAAAGCAAAAGCGAAAGCGA
modifications: sLCR
As to B1, the “sLCR reporter expression upon master TFs” value in the series on T98G cell line was “neutral to MGT #1 expression”. In addition, the “distribution of MGT #1 expressing cells in the tumor (immunohistochemical staining)” value in series [1] (intracranial transplant, n=10, humane end point) is recorded as “well confined within the invasive front”. Moreover, the “endogenous mVenus fluorescence by flow cytometry, in vivo vs in vitro” value in series [1] (xenograft-derived tumor cells) was “vast majority of the tumor cells switched to a MGT #1^low or dark state”. In addition, in the series on MCF7 cells, the “basal MGT #1 expression” value is on record as “lower MGT #1 expression compared to MDA-231 cells”. In addition, the “basal sLCR expression” value in the series with MES-hGICs and PN-hGICs is given as “higher basal expression in MES-hGICs compared to PN-hGICs”.

The values above are taken from patent US20210343368A1, “Method for Engineering Synthetic Cis-Regulatory DNA” (Max-Delbrück-Centrum für Molekulare Medizin in der …, priority 2018, published 2021).
